Reference: US20030103986A1 (ZymoGenetics, published 2003)
Blank lines part the entries; values can stand above or below the binder they belong to.

Experiments:
ZTNF4 [1] = target: T1, ZTNF4 (Homo sapiens (Human), UniProt Q9Y275 134-285, limits assumed, radioiodinated with 125I (Iodobeads) in the binding assays; unlabeled ZTNF4 used to determine nonspecific binding); assay: competitive binding: TACI-Fc against plate-coated TACI-N for 125I-ZTNF4
T1 construct: also called BAFF
Experimental: (§1) An N-terminal fragment of the TACI receptor, designated as “TACI-N,” was added to 96-well plates (100 μl at 0.1 μg/ml), and incubated overnight at 4° C. The plates were washed, blocked with Superblock (Pierce), and washed again. […] After incubation, the plates were washed and counted. Each determination was performed in triplicate.

ZTNF4 [2] = target: T1, ZTNF4; assay: solution binding: 0.05 nM TACI-Fc with 0.4 pM to 1.5 nM 125I-ZTNF4, Pansorbin precipitation
Experimental: At a concentration of 0.05 nM, each TACI-Fc construct was incubated with 0.4 pM to 1.5 nM ¹²⁵I-ZTNF4 for 30 minutes at room temperature in a total volume of 0.25 ml/tube. A Pansorbin (Staph A) suspension was added to each tube, and after 15 minutes, the samples were centrifuged, washed twice, and the pellets counted. Nonspecific binding was determined by the addition of 130 nM unlabeled ZTNF4 to the ¹²⁵I-ZTNF4/TACI-Fc mix. Specific binding was calculated by subtracting the cpm bound in the presence of unlabeled ZTNF4 from the total cpm bound at each concentration of ¹²⁵I-ZTNF4. Each determination was performed in triplicate. Binding constants were calculated using GraphPad Prism software (MacIntosh v. 3.0).

ZTNF4 [3] = target: T1, ZTNF4; assay: competitive binding: TACI-Fc against plate-coated TACI-N for 125I-ZTNF4 (20 ng/ml); average of three experiments
Experimental: as §1

B1: TACI (d1-29, d107-154)-Fc5 (Fc fusion)
chain: AMRSCPEEQYWDPLLGTCMSCKTICNHQSQRTCAAFCRSLSCRKEQGKFYDHLLRDCISCASICGQHPKQCAYFCENEPKSSDKTHTCPPCPAPEAEGAPSVFLFPPKPKDTLMISRTPEVTCVVVDVSHEDPEVKFNWYVDGVEVHNAKTKPREEQYNSTYRVVSVLTVLHQDWLNGKEYKCKVSNKALPSSIEKTISKAKGQPREPQVYTLPPSRDELTKNQVSLTCLVKGFYPSDIAVEWESNGQPENNYKTTPPVLDSDGSFFLYSKLTVDKSRWQQGNVFSCSVMHEALHNHYTQKSLSLSPGK
concentration giving complete inhibition (ZTNF4 [1]): ~100 ng/mL | Bmax (ZTNF4 [2]): 0.01 nM | Kd (ZTNF4 [2]): 0.121 nM | IC50 (ZTNF4 [3]): 4.95 nM

B4: TACI (d1-29)-Fc5 (Fc fusion)
chain: AMRSCPEEQYWDPLLGTCMSCKTICNHQSQRTCAAFCRSLSCRKEQGKFYDHLLRDCISCASICGQHPKQCAYFCENKLRSPVNLPPELRRQRSGEVENNSDNSGRYQGLEHRGSEASPALPGLKEPKSSDKTHTCPPCPAPEAEGAPSVFLFPPKPKDTLMISRTPEVTCVVVDVSHEDPEVKFNWYVDGVEVHNAKTKPREEQYNSTYRVVSVLTVLHQDWLNGKEYKCKVSNKALPSSIEKTISKAKGQPREPQVYTLPPSRDELTKNQVSLTCLVKGFYPSDIAVEWESNGQPENNYKTTPPVLDSDGSFFLYSKLTVDKSRWQQGNVFSCSVMHEALHNHYTQKSLSLSPGK
notes: Made in CHO DG44 cells
concentration giving complete inhibition (ZTNF4 [1]): ~100 ng/mL | Bmax (ZTNF4 [2]): 0.023 nM | Kd (ZTNF4 [2]): 0.134 nM | IC50 (ZTNF4 [3]): 2.07 nM

Now those with a lower Kd (ZTNF4 [2]), led by results:

concentration giving complete inhibition (ZTNF4 [1]): ~100 ng/mL | Bmax (ZTNF4 [2]): 0.018 nM | Kd (ZTNF4 [2]): 0.115 nM | IC50 (ZTNF4 [3]): 2.31 nM
B3: TACI (d1-29, d111-154)-Fc5 (Fc fusion)
chain: AMRSCPEEQYWDPLLGTCMSCKTICNHQSQRTCAAFCRSLSCRKEQGKFYDHLLRDCISCASICGQHPKQCAYFCENKLRSEPKSSDKTHTCPPCPAPEAEGAPSVFLFPPKPKDTLMISRTPEVTCVVVDVSHEDPEVKFNWYVDGVEVHNAKTKPREEQYNSTYRVVSVLTVLHQDWLNGKEYKCKVSNKALPSSIEKTISKAKGQPREPQVYTLPPSRDELTKNQVSLTCLVKGFYPSDIAVEWESNGQPENNYKTTPPVLDSDGSFFLYSKLTVDKSRWQQGNVFSCSVMHEALHNHYTQKSLSLSPGK

concentration giving complete inhibition (ZTNF4 [1]): ~100 ng/mL | Bmax (ZTNF4 [2]): 0.021 nM | Kd (ZTNF4 [2]): 0.092 nM | IC50 (ZTNF4 [3]): 2.21 nM
B2: TACI (d1-29, d120-154)-Fc5 (Fc fusion)
chain: AMRSCPEEQYWDPLLGTCMSCKTICNHQSQRTCAAFCRSLSCRKEQGKFYDHLLRDCISCASICGQHPKQCAYFCENKLRSPVNLPPELREPKSSDKTHTCPPCPAPEAEGAPSVFLFPPKPKDTLMISRTPEVTCVVVDVSHEDPEVKFNWYVDGVEVHNAKTKPREEQYNSTYRVVSVLTVLHQDWLNGKEYKCKVSNKALPSSIEKTISKAKGQPREPQVYTLPPSRDELTKNQVSLTCLVKGFYPSDIAVEWESNGQPENNYKTTPPVLDSDGSFFLYSKLTVDKSRWQQGNVFSCSVMHEALHNHYTQKSLSLSPGK
